Assay results: patent publication US9623039B2, “Treatment and prevention of pathological conditions using iduna related techniques and compositions” (VALTED, LLC, priority 2010, dated 2017)

Key:
[1] = Intrastriatal NMDA lesion in Iduna transgenic mice; format: in vivo, mouse; conditions: Iduna transgenic mice vs littermate wild type, intrastriatal NMDA 20 nmoles
Excerpt: To determine whether Iduna is protective in vivo, transgenic mice overexpressing Iduna were generated by knocking in Iduna into the ROSA26 genomic locus resulting in a four-fold expression over wild type littermate mice (FIGS. 58-60). NMDA induced lesions are reduced by approximately 80% in the Iduna transgenic mice compared to littermate wild type control animals following an intrastriatal injection of NMDA (20 nmoles) (FIGS. 61 and 62).
Transgenic Mice: ES cells were targeted and screened as described in Soriano et al. Briefly, the pROSA26PA-iduna plasmid was linearized with KpnI and electroporated into ES cells derived from mouse strain 129SvEv. Twelve of 277 G418-resistant colonies had undergone correct homologous recombination, as determined by Southern blot and PCR of the ROSA26-Iduna allele. Two of these ROSA26-Iduna ES clones were injected into C57BL/6 blastocysts. Resulting chimeras were bred to C57BL/6 mice and offspring were tested for germline transmission. Heterozygous mice for the Rosa26PA-Iduna allele were crossed to Nestin-Cre^(+/+) mice (on C57BL/6 background), which were obtained from the Jackson Laboratory, to obtain ROSA26PA-Iduna^(+/loxP)/Nestin-Cre^(−/+) mice. Nestin-cre/ROSA26PA-Iduna transgenic mice, in which Cre recombinase expression is under the control of the nestin promoter, specifically expresses Iduna in brain. […]

MCF7 cells = experiment: MNNG cell death assay in stable MCF7 cell lines; format: cell-based, human; conditions: MNNG 500 μM 15 min, 24 hr
Experimental: Cell death assay. GFP, GFP-Iduna, GFP-Iduna C60A, GFP-Iduna YRAA, shRNA-Iduna and shRNA-Iduna/GFP-Iduna stably transfected cells were treated with 500 μM MNNG for 15 min, and replaced with fresh growth media. After 24 h, the cells were stained with […] Hoechst 33342 (Invitrogen) and […] propidium iodide (PI) (Invitrogen) and counted by automated computer-assisted program (Carl Zeiss). The percentage of cell death was determined as the ratio of live to dead cells compared with the percentage of cell death in control.

[2] = Middle cerebral artery occlusion; format: in vivo, mouse
Experimental: Middle Cerebral Artery Occlusion (MCAD): To occlude the middle cerebral artery, mice were anesthetized with 1.5-2% isoflurane and maintained at normothermic temperature. A 7-0 monofilament with an enlarged silicone tip was passed through the right internal carotid artery to the base of the middle cerebral artery. Occlusion was confirmed by laser-Doppler flowmetry with a probe placed on thinned skull over the lateral parietal cortex. After 60 min of occlusion, the filament was removed and reperfusion was verified. At 24 h of reperfusion, the brain was harvested, sectioned into five coronal slabs, and stained with the vital dye, triphenyltetrazolium chloride. Infarct area was measured on the anterior and posterior surfaces of each slab and integrated to obtain infarct volume with correction for tissue swelling. The investigator performing the surgery and analyzing infarct size was unaware of the genotype of the mouse.
Neurobehavioural Activity: Spontaneous motor activity was evaluated for 5 min by placing the animals in a mouse cage for 5 minutes. […] Neurological deficits were evaluated by an observer blinded to the treatment and genotype of the animals with a scale of 0-4 (0 no neurological deficit, 4 severe neurological deficit). […] Recordings were evaluated by an observer blinded to the treatment and genotype of the animals. […]

PARP-1 = experiment: PARP inhibition assay (32P-NAD incorporation into PAR polymer); format: biochemical; conditions: 32P-NAD incorporation into radiolabeled PAR polymer
Experimental: Because PARP-1 activation plays a prominent role in NMDA excitotoxicity we tested whether PARP-1 activity is directly affected by Iduna. PARP-1 activity was assessed by incorporation of biotinylated PAR onto histone proteins.
PARP Inhibition Assay: To evaluate the ability of Iduna to act as a PARP inhibitor, [^32P]-labeled automodified PARP-1 was synthesized in presence of GST, GST-Iduna or PARG, respectively. To purify the [^32P]-labeled automodified PARP-1, the reaction mixture was incubated with anti-PAR antibody for 4 h at 4° C. and then sequentially incubated with protein-G slurry for 1 h at 4° C. Samples were washed two times with PBS and the amount of [^32P]-labeled automodified PARP-1 was measured by LS 6500 Liquid Scintillation Counting System.

B1: Iduna: novel NMDA-induced cell survival protein, PAR-dependent E3 ligase; 359 amino acids (protein)
chain: MEMAGCGEIDHSINMLPTNKKANESCSNTAPSLTVPECAICLQTCVHPVSLPCKHVFCYLCVKGASWLGKRCALCRQEIPEDFLDKPTLLSPEELKAASRGNGEYAWYYEGRNGWWQYDERTSRELEDAFSKGKKNTEMLIAGFLYVADLENMVQYRRNEHGRRRKIKRDIIDIPKKGVAGLRLDCDTNTVNLARESSADGADSGSAQTGASVQLAVPSSTRPLTSVDGQLTSPVTPSPDAGISLEDSFAHLQLSGDSIAERSHRGEGEEDHESPSSGRVPDTSVEETESDASSDSEDAPVVVAQHSLTQQRPLVPNGNQTVADQSDRSGTDRSVAGGGTMSVNVRSRRPDGQCTVIEV
reduction of NMDA induced lesions [1]: approximately 80%
MNNG-induced cell death (MCF7 cells): dramatically rescues MCF7 cells from MNNG-induced cell death
reduction of infarct volume ([2]; Iduna transgenic mice vs wild type, 60 min occlusion): 50%
neurological function following stroke ([2]; Iduna-Tg mice vs WT): improved neurological function
PARP-1 catalytic activity (PARP-1): fails to inhibit PARP-1 catalytic activity
